Measurements: paper PMC11361444

Target: 3XFLAG-ZAPL N658A (human) (UniProt Q7Z2W4)
Assay: co-IP; 3XFLAG-ZAPL and myc-TRIM25 co-transfected into ZAP KO HEK293T cells; lysed in FLAG buffer (100mM Tris HCl pH8.0, 150mM NaCl, 5mM EDTA, 5% glycerol, 0.1% NP-40, 1mM DTT); FLAG beads with lysates at 4°C for 45 min, three washes, immunoblot; densitometry of myc-TRIM25 normalized to FLAG-ZAP pulldown and to WT

Chain of UniProt Q7Z2W4 (Q7Z2W4 whole entry N658A): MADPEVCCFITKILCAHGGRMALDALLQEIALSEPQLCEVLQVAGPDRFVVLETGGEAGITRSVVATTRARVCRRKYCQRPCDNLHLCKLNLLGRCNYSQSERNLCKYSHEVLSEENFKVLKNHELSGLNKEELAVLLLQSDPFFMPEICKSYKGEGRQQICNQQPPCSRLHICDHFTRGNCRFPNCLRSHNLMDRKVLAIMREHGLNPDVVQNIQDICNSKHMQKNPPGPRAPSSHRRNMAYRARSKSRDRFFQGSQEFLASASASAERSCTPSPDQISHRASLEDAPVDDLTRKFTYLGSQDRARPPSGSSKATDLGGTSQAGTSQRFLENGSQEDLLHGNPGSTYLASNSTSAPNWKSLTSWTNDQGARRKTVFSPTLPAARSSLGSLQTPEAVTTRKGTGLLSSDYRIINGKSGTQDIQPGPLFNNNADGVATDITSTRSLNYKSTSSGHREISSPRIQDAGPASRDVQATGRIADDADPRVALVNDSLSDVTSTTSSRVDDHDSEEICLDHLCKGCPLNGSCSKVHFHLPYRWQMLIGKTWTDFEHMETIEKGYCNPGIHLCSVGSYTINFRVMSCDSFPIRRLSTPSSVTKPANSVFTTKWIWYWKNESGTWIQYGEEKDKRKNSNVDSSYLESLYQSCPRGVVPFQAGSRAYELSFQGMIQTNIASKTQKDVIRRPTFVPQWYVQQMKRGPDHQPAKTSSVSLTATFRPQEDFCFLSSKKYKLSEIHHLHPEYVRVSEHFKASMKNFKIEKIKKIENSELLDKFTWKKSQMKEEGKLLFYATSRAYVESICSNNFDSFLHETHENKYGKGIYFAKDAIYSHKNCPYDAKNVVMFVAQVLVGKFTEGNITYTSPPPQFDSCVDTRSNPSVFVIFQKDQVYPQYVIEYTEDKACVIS

myc-TRIM25 immunoprecipitated by FLAG-ZAP, relative to ZAPL WT (x (fold of ZAPL WT)): 1.09
Substance: myc-TRIM25 (tripartite motif containing 25) (from UniProt Q14258 1-630) (natural protein)
